Measurements published in patent publication US20160178646A1, “METHODS FOR DETECTING AMYLOID BETA AMYLOIDOSIS” (Washington University, priority 2011, published 2016).

Assay: Aβ SILK tracer kinetics in CSF with compartmental model of Aβ turnover
Format: in vivo, human
Details: for FTR faster: cognitively normal, amyloid positive group compared to cognitively normal, amyloid negative group; for FTR, Mean(95% confidence limits) / kex42 (Aβ42 exchange rate), Mean(95% confidence limits): multivariate ANOVA; for FTR (fractional turnover rate): mean ± StDev
Excerpt: These human studies took place at the Washington University School of Medicine in St. Louis and were approved by the Washington University Human Studies Committee and the General Clinical Research Center (GCRC) Advisory Committee. All participants completed informed written consent. One hundred and one participants were enrolled for these studies comprising 57 men (aged from 60.4 to 87.7) and 44 women (aged 63.8 to 85.2). Deposition of amyloid plaques was quantified in 62 subjects based on the mean cortical binding potential (MCBP) score of [^11C]PIB-PET.^15 PET PIB scans were performed within 3 years before or after the SILK tracer study date. Cognitive status using the Clinical Dementia Rating sum of boxes score (CDR-SB16) and ApoE genotyping^33 was assessed in all subjects.
The procedure for stable isotope amino acid tracer administration and sample collection was previously described.^12 Briefly, intravenous and intrathecal lumbar catheters were placed between 7:00 AM and 9:00 AM, and the collection of samples was started between 8:00 AM and 10:00 AM. After initial CSF and plasma baseline samples were collected, each participant was infused with a bolus of 3 mg/kg L-[U-^13C6] leucine for 10 minutes, followed by a constant infusion (2 mg/kg/h) for the remainder of the first 9 hours. Blood samples (12 mL) were obtained hourly for the first 16 h and every other hour thereafter. CSF samples (6 mL) were obtained hourly throughout each study. Aliquots of plasma and CSF were frozen at −80° C. immediately in 1 mL polypropylene tubes after being collected for subsequent determination of plasma leucine and CSF Aβ isoform peptide enrichment. The sample collection for one subject was truncated at 4 hours; this subject was excluded from the analysis.
All samples were processed and measured in a blinded fashion with data results and individual analysis completed before unblinding to participant's disease state. The procedure for sample preparation, data acquisition and processing were previously described.^34 Briefly, 1 mL of CSF from each hour of collection and media standards were thawed. Aβ was purified and processed for mass spectrometry by immunoprecipitation with a mid-domain binding antibody HJ5.1 (Aβ amino acids 13 to 28). […] The purified Aβ was then digested with Lys-N (Metalloendopeptidase) and isotopic enrichment of Aβ c-terminal isoform specific peptides (Aβ29-38, Aβ29-40, and Aβ29-42) were measured using a nano-liquid chromatography (NanoLC-2D-Ultra system (Eksigent Technologies, CA USA)) coupled to a TSQ Vantage triple quadrupole mass spectrometer (ThermoScientific, San Jose USA) that was equipped with a column-heating nanospray source (Phoenix S&T, Chester Pa. USA). Xcalibur V2.1 was used to collect and quantify the mass spectrometry data for SILK. […] Samples for 100 subjects (including the prior 24 subjects) were analyzed utilizing the more specific and sensitive method34 in this study.
The time and magnitude of the peak maximum was determined by fitting a 2nd order curve to enrichment vs. time over an 11-h interval centered at the approximate peak maximum. The compartmental model previously developed and applied to Autosomal Dominant AD participants was used to determine model-dependent parameters of Aβ turnover kinetics (FIG. 18).^14 Modeling was performed using the Population Kinetics (PopKinetics, version 1.0.1) companion application to the SAAM II modeling program (version 1.2.1, SAAM Institute, University of Washington, Seattle). PopKinetics performed an iterative two-stage approach to optimize kinetic parameters to individual participants as well as the population as a whole by including a term that represents the population mean and standard deviation for each adjustable parameter such that variability of the kinetic parameters across the population is minimized. […] The model consists of a plasma leucine pool, a subsystem for production of Aβ through APP and C99, turnover of Aβ, and transport of Aβ to CSF.

## Aβ40: naturally occurring amyloid-beta isoform Aβx-40, where x is any N-terminal cleavage site; endogenous, measured as biomarker
  FTR faster: 17%
CDR = 0 Amyloid+
  FTR, Mean(95% confidence limits): CDR = 0 Amyloid+ 0.096(0.083-0.109)
CDR = 0 Amyloid−
  FTR, Mean(95% confidence limits): CDR = 0 Amyloid− 0.082(0.068-0.096)
CDR > 0 Amyloid+
  FTR, Mean(95% confidence limits): CDR > 0 Amyloid+ 0.074(0.067-0.081)
CDR > 0 Amyloid−
  FTR, Mean(95% confidence limits): CDR > 0 Amyloid− 0.094(0.083-0.106)
Not significantly different by univariate analysis of amyloid status
  mean FTR: 0.082±0.022

## Aβ42: naturally occurring amyloid-beta isoform Aβx-42, where x is any N-terminal cleavage site; endogenous, measured as biomarker
Amyloid positive and Amyloid negative participants
  correlation between annualized change in fibrillar amyloid by PET PIB and FTR Aβ42 (R): 0.56
Amyloid negative participants
  exchange rate constant: 0.006±0.032 pools/h
  FTR (fractional turnover rate): 0.094±0.031 pools/h
Amyloid positive participants
  exchange rate constant: 0.049±0.054 pools/h
  FTR (fractional turnover rate): 0.112±0.035 pools/h
Clinically normal amyloid negative group
  FTR: 0.091 pool/h
Clinically normal amyloid positive group
  FTR: 0.143 pool/h
  FTR faster: 57%
Difference of FTR, clinically normal amyloid positive minus negative
  deposition rate constant (into amyloid plaques): 0.052 pool/h
In amyloidosis
  increase in exchange of newly synthesized soluble Aβ42: ten-fold increase
Amyloid+
  kex42 (Aβ42 exchange rate), Mean(95% confidence limits): Amyloid+ 0.059(0.042-0.076)
Amyloid+ participants, CSF SILK
  FTR, Mean(95% confidence limits): Amyloid+ 0.124 (0.112-0.135)
Amyloid−
  kex42 (Aβ42 exchange rate), Mean(95% confidence limits): Amyloid− 0.006(−0.016-0.029)
Amyloid− participants, CSF SILK
  FTR, Mean(95% confidence limits): Amyloid− 0.101 (0.086-0.115)
